Tests used:
[1] = molecular target: Vibrio harveyi chitoporin (VhChiP), recombinant, mature trimer (Vibrio harveyi type strain 650); experiment: SDS-PAGE of samples unheated or heated at up to 60°C; purified VhChiP (peak P2 of the ion exchange) unheated or heat-treated for 10 min, run on a 10% polyacrylamide gel; trimer to monomers
[2] = molecular target: Vibrio harveyi chitoporin (VhChiP), recombinant, mature trimer (Vibrio harveyi type strain 650); experiment: single-channel current recording in a planar lipid bilayer (BLM); purified VhChiP added to the cis side of a DPhPC bilayer, 1 M KCl, 20 mM HEPES pH 7.5; closure induced by higher voltage (+200 mV)

“Vibrio harveyi chitoporin (VhChiP), recombinant, mature trimer (natural protein)” showed a stoichiometry N [1] of 3 and a stoichiometry N [2] of 3.

Source: article PMC3558487
